According to the supplement of paper PMC9112550, “Optimization of the antimicrobial peptide Bac7 by deep mutational scanning” (BMC Biology, 2022):

Test system: Escherichia coli TOP10
Assay: shrunken log2 fold change of peptide-encoding DNA abundance (4.5 h post-induction vs induction); higher = less antimicrobial activity (less host growth inhibition)
Details: time post-induction: 4.5 h; library: site-saturation at positions 5, 18, 19, 20
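Note: peptides expressed intracellularly from a pBAD plasmid library in pooled LB shake-flask culture, induced with 0.3% L-arabinose, DNA abundance read by NGS, three biological replicates, DESeq2 with apeglm shrinkage.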

| Sequence | shrunken log2 fold change |
| --- | --- |
| RRIRARPPRLPRPRPRPGMLPRP | 0.334 |
| RRIRMRPPRLPRPRPRPCMIPRP | -0.0212 |
| RRIRYRPPRLPRPRPRPPLYPRP | 0.755 |
| RRIRVRPPRLPRPRPRPMHSPRP | -0.179 |
| RRIRYRPPRLPRPRPRPNIPPRP | -1.09 |
| RRIRRRPPRLPRPRPRPKCQPRP | 0.506 |
| RRIRVRPPRLPRPRPRPHFLPRP | 0.187 |
| RRIRTRPPRLPRPRPRPRACPRP | 0.608 |
| RRIRWRPPRLPRPRPRPSCYPRP | -0.122 |
| RRIRDRPPRLPRPRPRPYFMPRP | -0.735 |
| RRIRCRPPRLPRPRPRPQFLPRP | -0.79 |
| RRIRSRPPRLPRPRPRPWRVPRP | 0.108 |
| RRIRLRPPRLPRPRPRPTWYPRP | -0.221 |
| RRIRLRPPRLPRPRPRPENAPRP | -0.000678 |
| RRIRMRPPRLPRPRPRPPNNPRP | 0.436 |
| RRIRFRPPRLPRPRPRPEPHPRP | 0.258 |
| RRIRMRPPRLPRPRPRPNDYPRP | -0.103 |
| RRIRRRPPRLPRPRPRPCPEPRP | 0.0178 |
| RRIRHRPPRLPRPRPRPAWTPRP | -0.136 |
| RRIRVRPPRLPRPRPRPPAQPRP | 0.223 |
| RRIRRRPPRLPRPRPRPIMEPRP | 0.161 |
| RRIRARPPRLPRPRPRPMMEPRP | 0.0919 |
| RRIRWRPPRLPRPRPRPVCFPRP | 0.376 |
| RRIRPRPPRLPRPRPRPKDVPRP | -0.115 |
| RRIRDRPPRLPRPRPRPECTPRP | 1.05 |

| Sequence | shrunken log2 fold change |
| --- | --- |
| RRIRARPPRLPRPRPRPLNAPRP | 0.486 |
| RRIRGRPPRLPRPRPRPIGIPRP | -0.159 |
| RRIRIRPPRLPRPRPRPNMDPRP | -0.874 |
| RRIRGRPPRLPRPRPRPTKTPRP | 0.0741 |
| RRIRKRPPRLPRPRPRPTMWPRP | 0.643 |
| RRIRLRPPRLPRPRPRPQCAPRP | 0.228 |
| RRIRYRPPRLPRPRPRPKVFPRP | 0.149 |
| RRIRSRPPRLPRPRPRPQALPRP | 0.0266 |
| RRIRRRPPRLPRPRPRPNWFPRP | -0.0681 |
| RRIRPRPPRLPRPRPRPCCRPRP | -0.339 |
| RRIRVRPPRLPRPRPRPNQWPRP | -0.264 |
| RRIRSRPPRLPRPRPRPTFWPRP | 0.536 |
| RRIRKRPPRLPRPRPRPDTSPRP | 0.0236 |
| RRIRPRPPRLPRPRPRPKMRPRP | 0.903 |
| RRIRIRPPRLPRPRPRPNWTPRP | 0.117 |
| RRIRGRPPRLPRPRPRPCRQPRP | 0.436 |
| RRIRQRPPRLPRPRPRPFSDPRP | -0.00196 |
| RRIRKRPPRLPRPRPRPWIVPRP | -0.056 |
| RRIRTRPPRLPRPRPRPSIVPRP | -0.427 |
| RRIRCRPPRLPRPRPRPICGPRP | 0.289 |
| RRIRWRPPRLPRPRPRPWIPPRP | -0.0989 |
| RRIRVRPPRLPRPRPRPNACPRP | 0.215 |
| RRIRARPPRLPRPRPRPGKDPRP | 0.36 |
| RRIRYRPPRLPRPRPRPVMAPRP | -0.335 |
| RRIRMRPPRLPRPRPRPPCVPRP | 0.389 |

| Sequence | shrunken log2 fold change |
| --- | --- |
| RRIRHRPPRLPRPRPRPPYVPRP | -0.0952 |
| RRIRNRPPRLPRPRPRPNSHPRP | -0.858 |
| RRIRGRPPRLPRPRPRPIWHPRP | 0.213 |
| RRIRNRPPRLPRPRPRPLNAPRP | -0.662 |
| RRIRWRPPRLPRPRPRPYGKPRP | 0.027 |
| RRIRARPPRLPRPRPRPAMKPRP | 0.0417 |
| RRIRLRPPRLPRPRPRPVGIPRP | 0.102 |
| RRIRARPPRLPRPRPRPHMMPRP | -0.12 |
| RRIRKRPPRLPRPRPRPCLKPRP | -0.0379 |
| RRIRWRPPRLPRPRPRPINHPRP | -0.914 |
| RRIRPRPPRLPRPRPRPDHCPRP | -0.199 |
| RRIRSRPPRLPRPRPRPRTHPRP | 0.181 |
| RRIRARPPRLPRPRPRPSKLPRP | -0.118 |
| RRIRQRPPRLPRPRPRPFGFPRP | -0.233 |
| RRIRQRPPRLPRPRPRPEFSPRP | 0.362 |
| RRIRERPPRLPRPRPRPPPAPRP | 0.365 |
| RRIRLRPPRLPRPRPRPSAVPRP | -0.16 |
| RRIRFRPPRLPRPRPRPVMTPRP | -0.218 |
| RRIRCRPPRLPRPRPRPAPIPRP | 1.74 |
| RRIRLRPPRLPRPRPRPHDTPRP | -0.18 |
| RRIRWRPPRLPRPRPRPWRPPRP | 0.178 |
| RRIRMRPPRLPRPRPRPDFDPRP | 0.15 |
| RRIRYRPPRLPRPRPRPRHAPRP | -0.0916 |
| RRIRDRPPRLPRPRPRPTGAPRP | 1.37 |
| RRIRPRPPRLPRPRPRPVREPRP | 0.605 |

| Sequence | shrunken log2 fold change |
| --- | --- |
| RRIRMRPPRLPRPRPRPTACPRP | 1.02 |
| RRIRRRPPRLPRPRPRPIHRPRP | -0.041 |
| RRIRIRPPRLPRPRPRPTRLPRP | 0.0583 |
| RRIRHRPPRLPRPRPRPRFGPRP | 0.0573 |
| RRIRSRPPRLPRPRPRPWIWPRP | 0.341 |
| RRIRQRPPRLPRPRPRPHRCPRP | 0.109 |
| RRIRYRPPRLPRPRPRPTCGPRP | 0.0163 |
| RRIRARPPRLPRPRPRPILPPRP | 0.0507 |
| RRIRSRPPRLPRPRPRPNACPRP | 0.0406 |
| RRIRGRPPRLPRPRPRPLGPPRP | 0.456 |
| RRIRTRPPRLPRPRPRPPRGPRP | 0.607 |
| RRIRLRPPRLPRPRPRPRHDPRP | 0.0303 |
| RRIRHRPPRLPRPRPRPDQQPRP | 0.0104 |
| RRIRCRPPRLPRPRPRPYNMPRP | -0.188 |
| RRIRFRPPRLPRPRPRPGNIPRP | -0.0525 |
| RRIRHRPPRLPRPRPRPQYMPRP | -0.252 |
| RRIRDRPPRLPRPRPRPTHSPRP | 0.177 |
| RRIRPRPPRLPRPRPRPVVDPRP | -0.107 |
| RRIRMRPPRLPRPRPRPSSAPRP | 0.514 |
| RRIRLRPPRLPRPRPRPNTTPRP | -0.463 |
| RRIRRRPPRLPRPRPRPEHLPRP | 0.242 |
| RRIRERPPRLPRPRPRPMQGPRP | -0.0783 |
| RRIRWRPPRLPRPRPRPCANPRP | 0.0268 |
| RRIRWRPPRLPRPRPRPVVPPRP | 0.242 |
| RRIRLRPPRLPRPRPRPPHTPRP | 0.26 |

| Sequence | shrunken log2 fold change |
| --- | --- |
| RRIRRRPPRLPRPRPRPLAEPRP | 0.654 |
| RRIRLRPPRLPRPRPRPEGVPRP | 0.568 |
| RRIRERPPRLPRPRPRPSCQPRP | -0.47 |
| RRIRHRPPRLPRPRPRPYNRPRP | -0.0244 |
| RRIRVRPPRLPRPRPRPAWAPRP | 0.255 |
| RRIRPRPPRLPRPRPRPIRYPRP | 0.00275 |
| RRIRRRPPRLPRPRPRPKYAPRP | -0.0331 |
| RRIRARPPRLPRPRPRPMKPPRP | 0.101 |
| RRIRQRPPRLPRPRPRPAKKPRP | -0.0522 |
| RRIRCRPPRLPRPRPRPEARPRP | 0.193 |
| RRIRKRPPRLPRPRPRPKLWPRP | 0.656 |
| RRIRMRPPRLPRPRPRPGRNPRP | 0.344 |
| RRIRWRPPRLPRPRPRPDILPRP | 0.0776 |
| RRIRLRPPRLPRPRPRPIGEPRP | -0.169 |
| RRIRKRPPRLPRPRPRPGPHPRP | 0.803 |
| RRIRKRPPRLPRPRPRPKNGPRP | 0.173 |
| RRIRRRPPRLPRPRPRPTPMPRP | 1.08 |
| RRIRTRPPRLPRPRPRPYPKPRP | -0.0976 |
| RRIRDRPPRLPRPRPRPVARPRP | 0.56 |
| RRIRTRPPRLPRPRPRPSVAPRP | 0.00143 |
| RRIRCRPPRLPRPRPRPNPFPRP | -0.024 |
| RRIRRRPPRLPRPRPRPQQGPRP | 0.0446 |
| RRIRFRPPRLPRPRPRPFHVPRP | -0.546 |
| RRIRPRPPRLPRPRPRPDYNPRP | -0.553 |
| RRIRGRPPRLPRPRPRPIRWPRP | 0.577 |

| Sequence | shrunken log2 fold change |
| --- | --- |
| RRIRLRPPRLPRPRPRPYDRPRP | -0.0202 |
| RRIRERPPRLPRPRPRPFDMPRP | -0.0448 |
| RRIRFRPPRLPRPRPRPRGQPRP | 0.415 |
| RRIRFRPPRLPRPRPRPIIMPRP | -0.799 |
| RRIRTRPPRLPRPRPRPLWVPRP | 0.0735 |
| RRIRGRPPRLPRPRPRPKRPPRP | 0.969 |
| RRIRKRPPRLPRPRPRPMWIPRP | -0.0247 |
| RRIRHRPPRLPRPRPRPYGHPRP | -0.551 |
| RRIRCRPPRLPRPRPRPPQLPRP | 0.329 |
| RRIRPRPPRLPRPRPRPTKRPRP | 0.265 |
| RRIRYRPPRLPRPRPRPFGKPRP | -0.0625 |
| RRIRCRPPRLPRPRPRPELQPRP | 0.251 |
| RRIRSRPPRLPRPRPRPWFVPRP | -0.36 |
| RRIRQRPPRLPRPRPRPTGTPRP | 0.285 |
| RRIRERPPRLPRPRPRPEHPPRP | -0.0878 |
| RRIRVRPPRLPRPRPRPRQLPRP | 0.276 |
| RRIRFRPPRLPRPRPRPMMKPRP | -0.0975 |
| RRIRKRPPRLPRPRPRPFTIPRP | 0.0665 |
| RRIRQRPPRLPRPRPRPSGIPRP | 0.144 |
| RRIRIRPPRLPRPRPRPGVFPRP | 0.292 |
| RRIRRRPPRLPRPRPRPWRHPRP | 0.0972 |
| RRIRNRPPRLPRPRPRPQKGPRP | 0.0289 |
| RRIRNRPPRLPRPRPRPYTAPRP | -0.502 |
| RRIRGRPPRLPRPRPRPQQMPRP | 0.287 |
| RRIRDRPPRLPRPRPRPSDRPRP | 0.159 |
